In publication PMC10967716:

Molecular target: α-Methylacyl-CoA racemase from Mycobacterium tuberculosis, wild-type (M. tuberculosis) (UniProt O06543)
Test: SEC

## α-Methylacyl-CoA racemase from Mycobacterium tuberculosis, wild-type (from UniProt O06543 1-360) (enzyme)
  stoichiometry N: 2
